Molecular target: T1, Aβ aggregates in human Alzheimer's disease brain (Homo sapiens (endogenous, Alzheimer's …, UniProt P05067))
T1 construct: Aβ peptide of the amyloid precursor protein, aggregated in patient brain; also called Alzheimer's brain lysates; Aβ plaques; source: endogenous, human Alzheimer's disease brain (hippocampus homogenates; paraffin-embedded frontal cortex sections)
Assay: immunostaining of cells or tissue; immunohistochemistry of paraffin-embedded frontal cortex of Alzheimer's disease patients with moderate cerebral amyloid angiopathy; Digoxigenin-tagged antibody applied 1 h; HRP polymer, DAB
Details: one partner purified

- binding result: binds
B1: 97A34 tagged with Digoxigenin (antibody, V domains shown)
VH: EVQLVESGGGLVQPGGSLRLSCAASGYNIKATYIHWVRQAPGKGLEWVARIYPASGATRYADSVKGRFTISADTSKNTAYLQMNSLRAEDTAVYYCARDGYDGSYFVGYDYNDFYDYWGQGTLVTVSS
VL: DIQMTQSPSSLSASVGDRVTITCRASQNVAYAVTWYQQKPGKAPKLLIYSASFLYSGVPSRFSGSRSGTDFTLTISSLQPEDFATYYCQQHSTYPPTFGQGTKVEIK
notes: heavy chain constant region; light chain constant region; Detected with a Human-on-Human HRP-Polymer kit through mouse anti-Digoxigenin; I surmise the human IgG1 kappa form

From PMC12554751 (Frontiers in Immunology, 2025)
